In paper PMC4496704:

How the values were obtained:
[1] = molecular target: Recombinant mouse Hsp70 (70-kDa heat shock protein), wild type (mouse) (UniProt Q61696); test: cross-linking; without sulfatide (with or without lactosylceramide); 0.1 μM protein in PBS, 0.1% glutaraldehyde 10 min 30 °C, SDS-PAGE and Western blot
[2] = molecular target: Hsp-N (ATPase domain of mouse Hsp70; lacks the peptide-binding domain) (mouse); test: as above

stoichiometry N [1] | stoichiometry N [2] | Substance
2 |  | Recombinant mouse Hsp70 (70-kDa heat shock protein), wild type (from UniProt Q61696 1-641) (natural protein)
 | 2 | Hsp-N (ATPase domain of mouse Hsp70; lacks the peptide-binding domain) (domain or fragment)
